Some targets named below: PAK4(h) (human, UniProt O96013 1-591, limits assumed); Rsk1(h) (human, UniProt Q15418 1-735, limits assumed); CDK3/cyclinE(h) (human, UniProt Q00526 1-305; Q00526 1-305); CHK2(h) (human, UniProt O96017 5-543, limits assumed).
Common to all, as to test: cell-based or functional assay
The target of the next experiment is T1, Flt3(h) (human, UniProt P36888 564-993, limits assumed).
T1 sequence (looked up): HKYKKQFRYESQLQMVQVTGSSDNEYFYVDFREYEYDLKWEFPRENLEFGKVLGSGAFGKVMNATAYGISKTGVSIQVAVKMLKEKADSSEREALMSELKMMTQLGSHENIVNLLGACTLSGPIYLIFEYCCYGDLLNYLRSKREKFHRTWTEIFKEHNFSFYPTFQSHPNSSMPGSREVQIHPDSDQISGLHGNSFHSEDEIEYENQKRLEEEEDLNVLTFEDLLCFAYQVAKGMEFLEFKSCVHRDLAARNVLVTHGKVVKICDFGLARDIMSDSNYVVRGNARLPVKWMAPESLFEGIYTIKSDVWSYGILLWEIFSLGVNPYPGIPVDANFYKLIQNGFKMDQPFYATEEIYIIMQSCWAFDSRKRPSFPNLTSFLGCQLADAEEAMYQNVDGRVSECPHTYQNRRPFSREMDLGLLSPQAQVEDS

The next experiment has as its target T2, ALK4(h) (human, UniProt P36896 150-505, limits assumed).
T2 sequence (looked up): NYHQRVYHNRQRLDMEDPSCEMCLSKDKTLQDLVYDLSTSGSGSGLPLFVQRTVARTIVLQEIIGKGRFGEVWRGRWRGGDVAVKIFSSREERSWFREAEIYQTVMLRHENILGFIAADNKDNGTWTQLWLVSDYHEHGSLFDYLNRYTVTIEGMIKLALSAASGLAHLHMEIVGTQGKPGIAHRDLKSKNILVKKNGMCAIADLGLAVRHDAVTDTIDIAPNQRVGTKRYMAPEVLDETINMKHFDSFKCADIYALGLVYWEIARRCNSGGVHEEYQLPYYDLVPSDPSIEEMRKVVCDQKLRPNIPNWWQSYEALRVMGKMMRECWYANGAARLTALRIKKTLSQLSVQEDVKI

For another experiment, the target named is T3, NEK2(h) (human, UniProt P51955 1-445, limits assumed).
T3 sequence (looked up): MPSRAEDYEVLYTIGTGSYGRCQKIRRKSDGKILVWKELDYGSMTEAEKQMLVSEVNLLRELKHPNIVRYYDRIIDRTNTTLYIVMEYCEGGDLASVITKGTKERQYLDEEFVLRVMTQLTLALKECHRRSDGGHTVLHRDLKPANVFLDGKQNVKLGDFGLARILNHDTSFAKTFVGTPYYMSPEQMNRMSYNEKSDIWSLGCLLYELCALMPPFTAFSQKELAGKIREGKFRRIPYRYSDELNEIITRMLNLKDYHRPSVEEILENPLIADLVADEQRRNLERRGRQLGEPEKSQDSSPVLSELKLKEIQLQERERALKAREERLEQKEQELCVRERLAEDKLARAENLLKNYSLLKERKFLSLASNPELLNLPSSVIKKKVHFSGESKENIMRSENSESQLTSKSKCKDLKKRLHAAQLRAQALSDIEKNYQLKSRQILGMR

The target of a further experiment is T4, Ret(V804L)(h) (human, UniProt P07949 658-1114, limits assumed).
T4 sequence (looked up): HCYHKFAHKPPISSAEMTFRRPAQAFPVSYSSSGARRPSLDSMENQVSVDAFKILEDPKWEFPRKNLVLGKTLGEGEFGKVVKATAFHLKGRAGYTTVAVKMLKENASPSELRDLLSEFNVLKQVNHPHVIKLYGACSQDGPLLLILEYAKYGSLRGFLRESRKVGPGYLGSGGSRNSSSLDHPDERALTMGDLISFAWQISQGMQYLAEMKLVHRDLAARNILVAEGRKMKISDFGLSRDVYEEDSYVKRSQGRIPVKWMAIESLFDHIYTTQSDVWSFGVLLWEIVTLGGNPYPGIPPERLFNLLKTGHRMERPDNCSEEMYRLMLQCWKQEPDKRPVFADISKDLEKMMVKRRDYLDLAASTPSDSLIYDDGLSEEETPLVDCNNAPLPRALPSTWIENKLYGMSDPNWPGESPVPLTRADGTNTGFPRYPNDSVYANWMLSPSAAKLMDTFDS

The target of the next experiment is T5, DCAMKL2(h) (human, UniProt Q8N568 372-766, limits assumed).
T5 sequence (looked up): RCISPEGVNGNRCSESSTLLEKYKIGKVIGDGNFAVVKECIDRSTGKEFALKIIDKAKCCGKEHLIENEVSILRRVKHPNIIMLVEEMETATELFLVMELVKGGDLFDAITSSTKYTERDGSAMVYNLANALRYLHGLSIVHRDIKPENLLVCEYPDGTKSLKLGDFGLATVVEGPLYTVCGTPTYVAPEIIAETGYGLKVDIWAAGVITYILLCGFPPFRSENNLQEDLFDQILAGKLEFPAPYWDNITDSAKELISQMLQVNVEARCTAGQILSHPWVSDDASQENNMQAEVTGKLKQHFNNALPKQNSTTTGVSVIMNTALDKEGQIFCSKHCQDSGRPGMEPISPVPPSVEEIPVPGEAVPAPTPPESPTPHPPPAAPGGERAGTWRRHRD

A further experiment addresses T6, EphB4(h) (human, UniProt P54760 561-987, limits assumed).
T6 sequence (looked up): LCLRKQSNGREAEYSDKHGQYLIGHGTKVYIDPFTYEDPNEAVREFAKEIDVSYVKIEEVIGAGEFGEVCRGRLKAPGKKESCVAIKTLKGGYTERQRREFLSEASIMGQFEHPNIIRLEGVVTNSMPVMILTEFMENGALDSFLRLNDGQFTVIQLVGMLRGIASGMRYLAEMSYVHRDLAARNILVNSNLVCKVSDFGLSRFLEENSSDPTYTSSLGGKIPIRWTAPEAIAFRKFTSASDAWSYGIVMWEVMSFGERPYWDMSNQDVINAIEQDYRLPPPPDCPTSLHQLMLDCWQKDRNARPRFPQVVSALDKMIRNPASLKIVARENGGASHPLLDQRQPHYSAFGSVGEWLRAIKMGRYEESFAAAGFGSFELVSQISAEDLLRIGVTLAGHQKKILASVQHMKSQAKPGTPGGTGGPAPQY

The values below come from patent US20160200782A1 (MOERAE MATRIX, published 2016).
Also: test concentration or dose not given here.

Chain of PAK4(h) (O96013 whole entry): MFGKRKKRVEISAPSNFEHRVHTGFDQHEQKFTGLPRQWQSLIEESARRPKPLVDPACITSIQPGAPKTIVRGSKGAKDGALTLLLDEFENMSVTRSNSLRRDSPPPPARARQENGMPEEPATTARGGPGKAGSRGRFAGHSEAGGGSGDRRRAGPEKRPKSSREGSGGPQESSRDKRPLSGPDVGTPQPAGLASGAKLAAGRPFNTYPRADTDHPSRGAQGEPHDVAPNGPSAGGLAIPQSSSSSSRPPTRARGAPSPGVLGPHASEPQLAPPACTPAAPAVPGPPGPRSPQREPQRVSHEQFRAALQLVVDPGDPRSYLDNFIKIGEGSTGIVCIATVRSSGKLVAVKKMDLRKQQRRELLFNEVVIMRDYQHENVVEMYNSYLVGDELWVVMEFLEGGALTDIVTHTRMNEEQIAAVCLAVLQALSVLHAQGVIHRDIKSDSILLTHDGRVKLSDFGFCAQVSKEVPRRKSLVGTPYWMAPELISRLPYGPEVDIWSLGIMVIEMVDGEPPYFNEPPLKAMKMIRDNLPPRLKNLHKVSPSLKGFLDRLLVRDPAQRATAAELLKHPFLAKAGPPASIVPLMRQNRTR
Chain of Rsk1(h) (Q15418 whole entry): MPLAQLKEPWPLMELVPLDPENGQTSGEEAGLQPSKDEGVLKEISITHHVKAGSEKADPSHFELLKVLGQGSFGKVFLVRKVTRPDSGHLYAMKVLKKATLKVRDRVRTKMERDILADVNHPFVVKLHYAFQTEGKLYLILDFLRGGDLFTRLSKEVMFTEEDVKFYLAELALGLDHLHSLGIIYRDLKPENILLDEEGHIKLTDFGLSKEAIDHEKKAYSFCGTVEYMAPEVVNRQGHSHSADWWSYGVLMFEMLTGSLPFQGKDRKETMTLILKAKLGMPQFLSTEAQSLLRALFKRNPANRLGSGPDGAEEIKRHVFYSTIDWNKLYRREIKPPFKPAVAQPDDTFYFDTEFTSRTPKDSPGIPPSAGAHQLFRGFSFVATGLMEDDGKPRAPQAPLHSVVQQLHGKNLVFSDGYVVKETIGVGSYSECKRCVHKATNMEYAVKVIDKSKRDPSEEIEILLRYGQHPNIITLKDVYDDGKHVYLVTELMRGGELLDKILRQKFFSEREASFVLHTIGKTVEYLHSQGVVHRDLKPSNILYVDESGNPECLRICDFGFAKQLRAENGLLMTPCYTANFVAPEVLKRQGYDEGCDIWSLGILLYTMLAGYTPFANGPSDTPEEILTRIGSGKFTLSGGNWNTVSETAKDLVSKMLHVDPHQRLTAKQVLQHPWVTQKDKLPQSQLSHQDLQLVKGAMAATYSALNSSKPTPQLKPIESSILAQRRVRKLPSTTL
Chain of CDK3/cyclinE(h) (Q00526 whole entry, chain 1 of 2): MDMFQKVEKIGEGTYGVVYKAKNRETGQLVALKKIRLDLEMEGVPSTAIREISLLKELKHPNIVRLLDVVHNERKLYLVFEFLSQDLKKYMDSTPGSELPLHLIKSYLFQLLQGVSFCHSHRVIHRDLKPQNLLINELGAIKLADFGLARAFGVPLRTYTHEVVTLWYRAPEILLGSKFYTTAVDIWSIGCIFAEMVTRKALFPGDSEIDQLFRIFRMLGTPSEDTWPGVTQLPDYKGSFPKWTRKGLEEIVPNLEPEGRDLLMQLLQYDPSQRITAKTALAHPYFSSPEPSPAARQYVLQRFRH
Chain of CDK3/cyclinE(h) (Q00526 whole entry, chain 2 of 2): as the sequence (Q00526 whole entry, chain 1 of 2) above
Chain of CHK2(h) (O96017 5-543 limits assumed): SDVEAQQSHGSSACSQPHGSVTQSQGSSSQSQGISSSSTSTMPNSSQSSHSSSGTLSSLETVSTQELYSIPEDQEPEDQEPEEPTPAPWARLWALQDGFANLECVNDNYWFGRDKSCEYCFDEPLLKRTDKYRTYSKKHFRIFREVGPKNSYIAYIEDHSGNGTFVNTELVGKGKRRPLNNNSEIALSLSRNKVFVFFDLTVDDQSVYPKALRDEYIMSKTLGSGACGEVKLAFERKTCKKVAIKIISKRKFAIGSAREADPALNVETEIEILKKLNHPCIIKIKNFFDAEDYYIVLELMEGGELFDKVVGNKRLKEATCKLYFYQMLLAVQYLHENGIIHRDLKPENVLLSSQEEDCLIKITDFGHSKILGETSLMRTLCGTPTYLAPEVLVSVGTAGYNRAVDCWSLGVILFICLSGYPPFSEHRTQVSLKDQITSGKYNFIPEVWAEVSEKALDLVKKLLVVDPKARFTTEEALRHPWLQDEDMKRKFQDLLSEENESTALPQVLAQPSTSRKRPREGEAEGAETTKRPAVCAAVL

Turning to FAKLAARLYRKALARQLGVAA [MMI-0300], the “% activity” value with Flt3(h) was found to be 84%; in the experiment with ALK4(h) it was 140%; with NEK2(h), 78%; in the experiment with PAK4(h), 94%; with Ret(V804L)(h) it was 79%; with Rsk1(h), 46%. Further, the “% activity” value with CDK3/cyclinE(h) came to 94%; with CHK2(h), 66%; with DCAMKL2(h), 81%; with EphB4(h), 44%.

For KAFAKLAARLYRKALARQLGVAA [MMI-0400], the “% activity” value worked out at 18% with Flt3(h); 130% with ALK4(h); 61% with NEK2(h); 89% in the experiment with PAK4(h); 73% in the experiment with Ret(V804L)(h); 54% with Rsk1(h). Besides, the “% activity” value with CDK3/cyclinE(h) was found to be 92%; with CHK2(h), 54%; with DCAMKL2(h), 70%; with EphB4(h) it was 28%.
